# From US20240294651A1 (KYMAB, published 2024)
# Changes are numbered by the printed parent chain.
# B1: CL-82458 (antibody, human IgG4 S228P, kappa, V domains shown)
# VH: EVQLVESGGDLVQPGGSLRLSCAASGFTFYSYAMNWVRQAPGKGLKWVSGISGSGDITYYADSVKGRFTISRDNSKNTLYLQMHSLRPEDTAIYYCAKGQLERRYYKYYGMDVWGQGTTVTVSS
# VL: DIQMTQSPSSLSASVGDRVTITCRANQGIRNDLGWYQQKPGKAPKRLIYGASSLKSGVPSRFSGSGSGTEFTLTISSLQPEDFATYYCLQQNSYPLTFGGGTKVEIKR
# notes: Tested in human IgG4-PE format; also called CL-82458 (IgG4-PE format)
# B2: CL-83083 (antibody, human IgG4 S228P, lambda)
# heavy: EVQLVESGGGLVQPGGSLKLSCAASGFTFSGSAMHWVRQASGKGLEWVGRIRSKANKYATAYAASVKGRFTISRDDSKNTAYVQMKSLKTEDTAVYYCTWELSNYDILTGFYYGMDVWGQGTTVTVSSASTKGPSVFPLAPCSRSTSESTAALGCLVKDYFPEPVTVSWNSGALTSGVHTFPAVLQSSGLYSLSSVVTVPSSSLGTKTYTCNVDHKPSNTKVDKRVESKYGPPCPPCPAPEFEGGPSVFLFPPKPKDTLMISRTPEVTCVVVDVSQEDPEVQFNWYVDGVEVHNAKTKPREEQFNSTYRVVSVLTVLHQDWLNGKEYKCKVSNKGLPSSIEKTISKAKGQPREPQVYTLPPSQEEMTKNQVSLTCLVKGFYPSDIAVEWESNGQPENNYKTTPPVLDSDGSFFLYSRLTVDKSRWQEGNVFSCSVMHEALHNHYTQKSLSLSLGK
# light: QAGLTQPPSVSKGLRQTATLTCTGNSNNVGNLGAAWLQQHQGHPPKLLSYRNNNRPSGISERFFASRSGNTASLTITGLQPEDEADYYCSAWDSSLSAWVFGGGTKLTVLGQPKAAPSVTLFPPSSEELQANKATLVCLISDFSPGAVTVAWKADSSPVKAGVETTTPSKQSNNKYAASSYLSLTPEQWKSHKSYSCQVTHEGSTVKKTVAPTECS
# notes: Tested in human IgG4-PE format; lambda light chain; also called CL-83083 (IgG4-PE format)
# B3: CL-83083-2 (antibody, human IgG4 S228P, lambda)
# heavy: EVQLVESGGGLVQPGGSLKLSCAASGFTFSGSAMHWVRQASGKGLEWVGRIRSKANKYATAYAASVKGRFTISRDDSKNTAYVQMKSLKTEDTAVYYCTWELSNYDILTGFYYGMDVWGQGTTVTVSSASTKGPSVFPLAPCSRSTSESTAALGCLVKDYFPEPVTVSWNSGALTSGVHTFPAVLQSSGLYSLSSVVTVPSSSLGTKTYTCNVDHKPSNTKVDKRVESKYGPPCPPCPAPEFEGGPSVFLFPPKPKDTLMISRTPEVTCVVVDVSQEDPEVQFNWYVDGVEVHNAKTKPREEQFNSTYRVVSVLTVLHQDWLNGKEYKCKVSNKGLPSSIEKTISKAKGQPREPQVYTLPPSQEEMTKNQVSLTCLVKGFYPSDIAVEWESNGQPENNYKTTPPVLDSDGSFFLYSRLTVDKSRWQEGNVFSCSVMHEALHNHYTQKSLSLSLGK
# light: B2 light with S144Y, K207E
# notes: Same variable domains as CL-83083, different lambda constant region; tested in human IgG4-PE format; also called CL-83083-2 (IgG4-PE format)
# B4: CL-82574 (antibody, human IgG4 S228P, kappa)
# heavy: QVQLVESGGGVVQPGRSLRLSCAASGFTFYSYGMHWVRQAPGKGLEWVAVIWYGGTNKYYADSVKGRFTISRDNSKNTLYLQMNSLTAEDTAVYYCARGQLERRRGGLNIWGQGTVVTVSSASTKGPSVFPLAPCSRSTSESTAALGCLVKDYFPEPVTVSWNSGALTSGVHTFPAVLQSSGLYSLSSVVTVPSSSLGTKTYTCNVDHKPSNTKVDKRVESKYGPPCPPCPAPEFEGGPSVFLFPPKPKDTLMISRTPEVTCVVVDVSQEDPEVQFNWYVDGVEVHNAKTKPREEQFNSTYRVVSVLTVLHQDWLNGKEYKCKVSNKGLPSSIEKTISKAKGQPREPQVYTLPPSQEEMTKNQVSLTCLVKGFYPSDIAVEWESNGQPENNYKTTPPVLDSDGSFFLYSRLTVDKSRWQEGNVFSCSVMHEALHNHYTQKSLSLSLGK
# light: DIQMTQSPSSLSASVGDRVTITCRASQGVRDDLGWYQQKPGKAPKRLIYAASSLQSGVPSRFSGSGSGTEFTLTISSLQPEDFATYYCLQHNSYPFTFGPGTKVDIKRTVAAPSVFIFPPSDEQLKSGTASVVCLLNNFYPREAKVQWKVDNALQSGNSQESVTEQDSKDSTYSLSSTLTLSKADYEKHKVYACEVTHQGLSSPVTKSFNRGEC
# notes: Tested in human IgG4-PE format; also called CL-82574 (IgG4-PE format)
# B5: CL-82458 Fab fragment (Fab, V domains shown)
# VH: B1 VH
# VL: DIQMTQSPSSLSASVGDRVTITCRANQGIRNDLGWYQQKPGKAPKRLIYGASSLKSGVPSRFSGSGSGTEFTLTISSLQPEDFATYYCLQQNSYPLTFGGGTKVEIK
# notes: Purified Fab fragment
# B6: CL-82574 Fab fragment (Fab, V domains shown)
# VH: QVQLVESGGGVVQPGRSLRLSCAASGFTFYSYGMHWVRQAPGKGLEWVAVIWYGGTNKYYADSVKGRFTISRDNSKNTLYLQMNSLTAEDTAVYYCARGQLERRRGGLNIWGQGTVVTVSS
# VL: B5 VL with N26S, I29V, N31D, G50A, K55Q, Q91H, L96F, G100P, E105D
# notes: Purified Fab fragment
# B7: CL-82658 Fab fragment (Fab, V domains shown)
# VH: QVQLVESGGGVVQPGRSLRLSCAASGFSFSSYGMHWVRQAPGKGLEWVAVISYDGSNKYYADSVKGRFTISRDNSKNTLYLQMNSLRGEDTAVYYCSKGSLTPRRGYYYSYGMDVWGQGTTVTVSS
# VL: B5 VL with N26S, G34S, G50A, K55Q, Q91H, S93G, L96F, G100P, E105D
# notes: Purified Fab fragment
# B8: CL-83083 Fab fragment (Fab, V domains shown)
# VH: EVQLVESGGGLVQPGGSLKLSCAASGFTFSGSAMHWVRQASGKGLEWVGRIRSKANKYATAYAASVKGRFTISRDDSKNTAYVQMKSLKTEDTAVYYCTWELSNYDILTGFYYGMDVWGQGTTVTVSS
# VL: QAGLTQPPSVSKGLRQTATLTCTGNSNNVGNLGAAWLQQHQGHPPKLLSYRNNNRPSGISERFFASRSGNTASLTITGLQPEDEADYYCSAWDSSLSAWVFGGGTKLTVL
# notes: Purified Fab fragment
# Target: T1, human CXCR4 (cell-expressed) (human, UniProt P61073 1-352)
# Assay: cell-based or functional assay
# T1 sequence (P61073 whole entry): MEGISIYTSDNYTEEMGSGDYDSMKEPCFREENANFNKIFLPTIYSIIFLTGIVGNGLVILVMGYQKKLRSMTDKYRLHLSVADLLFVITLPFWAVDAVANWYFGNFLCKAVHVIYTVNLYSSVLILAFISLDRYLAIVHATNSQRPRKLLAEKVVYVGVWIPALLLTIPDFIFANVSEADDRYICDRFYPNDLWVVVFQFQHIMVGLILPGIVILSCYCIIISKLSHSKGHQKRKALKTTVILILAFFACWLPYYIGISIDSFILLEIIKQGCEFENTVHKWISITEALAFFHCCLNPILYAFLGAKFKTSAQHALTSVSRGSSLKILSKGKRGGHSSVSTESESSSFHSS
Binder,"% Max Inhibition, cAMP HTRF assay, CXCR4 BacMam HEK-293 cells [%]","IC50, cAMP HTRF assay, CXCR4 BacMam HEK-293 cells, 5.5 nM CXCL12 [nM]"
B1,88,40
B2,80,36
B3,93,44
B4,96,21

# Target: T1, human CXCR4 (cell-expressed)
# Assay: cell-based or functional assay
# Remark: another data set of the same source
Binder,"% Max Inhibition, beta-arrestin reporter assay, Tango CXCR4-bla U2OS cells [%]","IC50, beta-arrestin reporter assay, Tango CXCR4-bla U2OS cells, 30 nM CXCL12 [nM]"
B1,102,0.31
B2,98.9,0.43
B3,96.9,0.79
B4,99.5,0.14

# Target: T1, human CXCR4 (cell-expressed)
# Assay: cell-based or functional assay
# Remark: another data set of the same source
row,Binder,"Max Signal (Total Overlap Object Area), internalisation on Ramos cells, live-cell imaging [µm^2 per image]"
1,B1,20800
2,B2,9670
3,B4,18100

# Target: T2, cynomolgus CXCR4 (cynomolgus monkey, UniProt Q28474 1-352)
# Assay: cell-based or functional assay
# T2 sequence (Q28474 whole entry): as the sequence (P61073 whole entry) above, with M24I, N35H, K38R, R146K, N176S counted along it
Binder,"% Maximum Inhibition, cAMP HTRF assay, cyno CXCR4 BacMam HEK-293 cells [%]","IC50, cAMP HTRF assay, cyno CXCR4 BacMam HEK-293 cells [nM]"
B1,78,2
B2,84,11.8
B4,90,1.2

# Target: T1, human CXCR4 (cell-expressed)
# Assay: cell-based or functional assay
# Remark: another data set of the same source
Binder,"% effect (remaining % of CXCL12 response), DMR assay, human T-cells [%]","IC50, label-free DMR assay, isolated human T-cells, EC80 CXCL12 [nM]"
B1,2,12.1
B2,5.1,3.58
B3,4.4,3.98
B4,0.68,2.09

# Target: T1, human CXCR4 (cell-expressed)
# Assay: cell-based or functional assay
# Remark: another data set of the same source
Binder,"IC50 n = 1, Jurkat chemotaxis towards 30 nM CXCL12 (IncuCyte) [nM]","IC50 n = 2, Jurkat chemotaxis towards 30 nM CXCL12 (IncuCyte) [nM]","IC50 n = 3, Jurkat chemotaxis towards 30 nM CXCL12 (IncuCyte) [nM]","Mean IC50, Jurkat chemotaxis towards 30 nM CXCL12 (IncuCyte) [nM]"
B1,2.18,3.43,1.66,2.42
B2,0.47,0.43,0.34,0.41
B4,0.32,0.62,0.63,0.52

# Target: T1, human CXCR4 (cell-expressed)
# Assay: cell-based or functional assay
# Remark: another data set of the same source
Binder,"% of max migration at 120 nM Ab, primary naïve T-cell trans-well migration [%]","IC50, primary naïve T-cell trans-well migration [nM]"
B1,17.6,
B2,25.7,1.55
B4,5.44,0.95

# Target: T1, human CXCR4 (cell-expressed)
# Assay: cell-based or functional assay
# Remark: another data set of the same source
row,Binder,"IC50 of antibody in presence of 30 nM CXCL12, human T-cell transwell chemotaxis"
1,B1,0.26 not printed (nM assumed)
2,B2,0.35 not printed (nM assumed)
3,B4,0.21 not printed (nM assumed)

# Target: T2, cynomolgus CXCR4
# Assay: flow cytometry on CHO-S cells expressing cynomolgus CXCR4
# Method: Cynomolgus monkey CXCR4 expressing CHO-S cells were plated at 100 uL/well of cells at 1 million of cells/mL (0.1 million of cells/well) into a 96 well V-bottom plate (Greiner). Plates were centrifuged at 300×g for 3 min at 4° C. and supernatant discarded. […] Primary antibody dilutions were added to cells (50 μL/well) and cell pellets resuspended by pipetting. Plates was incubated for 1 h at 4° C. 100 μL/well of PBS, was added and plates centrifuged at 300×g for 3 min at 4° C. and supernatant discarded. This step was repeated twice. […] Cells were resuspended by pipetting. Plates were incubated for 1 h at 4° C. 100 μL/well PBS, was added and plates centrifuged at 300×g for 3 min at 4° C. and supernatant discarded. This step was repeated twice. Finally, cells were resuspended in 100 μL/well of PBS and analysed on CytoFLEX (Beckman Coulter).
# Binding of antibodies to cynomolgus CXCR4 expressed on CHO-S cells was analysed by gating the main cell population using forward and side scatter (Flow Jo, Flow Jo LLC) to allow for doublet discrimination. […] EC₅₀ values were calculated by transforming the data and fitting a 4-parameter logistic regression curve to each antibody titration.
row,Binder,EC50 [nM]
1,B1,2.2
2,B2,11
3,B4,3.5

# Target: T3, biotinylated CXCR4-virus like particle (Integral Molecular, Lot INT-1793B) (human, UniProt P61073 1-352, VLP biotinylated, sites not stated)
# T3 construct: also called hCXCR4 VLP; CXCR4 VLP
# Assay: SPR (Biacore 8K), biotinylated CXCR4 VLP captured on SA chip, Fab as analyte, 25 C, 1:1 model
# T3 sequence (P61073 whole entry): as the sequence (P61073 whole entry) above
Binder,Kd [nM],koff [s⁻¹],kon [M⁻¹ s⁻¹]
B5,1.26,0.00111,887000
B6,0.52,0.000481,927000
B7,0.69,0.000423,616000
B8,1.86,0.00102,546000

# Target: T4, terbium-labelled SNAP-CXCR4 on HEK-293 cells (Cisbio C1TT1CXCR4) (human, UniProt P61072 1-352 (Pan troglodytes entry), terbium label on the SNAP tag)
# T4 construct: Bought assay-ready cells; also called CXCR4 expressing cells; not shown: SNAP tag
# Assay: TR-FRET (Tag-lite) competition with AlexaFluor 647-CXCL12 on terbium-labelled SNAP-CXCR4 HEK-293 cells
# T4 sequence (P61072 whole entry): as the sequence (P61073 whole entry) above
Binder,% Max Inhibition [%],IC50 [nM]
B1,99,0.79
B2,96,1.74
B3,97,3.92
B4,98,0.63

# Target: T5, human CXCR7 (human, UniProt P25106 1-362)
# T5 construct: Expressed on CHO-S cells
# Assay: flow cytometry on CHO-S cells expressing human CXCR7, Alexa Fluor 647 secondary antibody, GeoMean (647 nm)
# Method: CXCR7 expressing CHO-S cells were plated at 100 μL/well of cells at 1 million of cells/mL (0.1 million of cells/well) into a 96 well V-bottom plate (Greiner). Plates were centrifuged at 300×g for 3 min at 4° C. and supernatant discarded. […] Primary antibody dilutions were added to cells (100 μL/well) and cell pellets resuspended by pipetting. Plate was incubated for 1 h at 4° C. 100 μL/well of PBS, was added and plates centrifuged at 300×g for 3 min at 4° C. and supernatant discarded. This step was repeated twice. […] Cells were resuspended by pipetting. Plate was incubated for 1 h at 4° C. 100 μL/well of PBS, was added and plates centrifuged at 300×g for 3 min at 4° C. and supernatant discarded. This step was repeated twice. Finally, cells were resuspended in 100 μL/well of PBS and analysed on CytoFLEX (Beckman Coulter).
# Binding of antibodies to CXCR7 expressed on CHO-S cells was analysed by gating the main cell population using forward and side scatter (Flow Jo, Flow Jo LLC) to allow for doublet discrimination.
# T5 sequence (P25106 whole entry): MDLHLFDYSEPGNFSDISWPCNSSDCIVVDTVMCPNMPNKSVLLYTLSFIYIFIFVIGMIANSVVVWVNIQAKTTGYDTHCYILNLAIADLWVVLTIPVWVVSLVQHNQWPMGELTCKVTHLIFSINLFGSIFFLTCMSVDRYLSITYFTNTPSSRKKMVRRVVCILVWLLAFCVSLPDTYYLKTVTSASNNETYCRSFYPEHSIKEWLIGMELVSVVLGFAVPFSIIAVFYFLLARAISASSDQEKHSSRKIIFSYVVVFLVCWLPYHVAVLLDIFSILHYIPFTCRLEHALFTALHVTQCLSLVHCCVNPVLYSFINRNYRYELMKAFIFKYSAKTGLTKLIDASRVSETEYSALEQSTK
row,Binder,binding result
1,B1,no binding (tested: log(M) about -6.9 (about 1.2e-7 M))
2,B2,no binding (tested: log(M) about -6.9 (about 1.2e-7 M))
3,B4,no binding (tested: log(M) about -6.9 (about 1.2e-7 M))

# Target: T6, CXCR4 StaR nanodiscs
# T6 construct: Purified receptor in lipid-protein nanodiscs; also called StaR CXCR4; thermostabilised CXCR4
# Assay: SPR (Biacore T200), IgG4-PE antibody captured by anti-IgG on CM5, CXCR4 StaR nanodiscs at 250 nM as analyte, 25 C, 1:1 model; N = 1
# Method: Anti-IgG antibodies were immobilised on chip CM5 (GE Healthcare) by amine coupling. […] A channel with no anti-CXCR4 antibodies captured was used as a reference. […] The blank-subtracted sensorgrams were fitted to the 1:1 interaction model using the Biacore T200 evaluation software. The assay was run at 25° C. using 0.01 M HEPES pH 7.4, 0.15 M NaCl as running buffer.
Binder,Kd [nM],koff [s⁻¹],kon [M⁻¹ s⁻¹]
B1,7.5,0.00046,61000
B2,7.1,0.00097,140000
B4,8,0.00088,110000
